Reference: paper doi:10.1101/2024.06.21.600001 (bioRxiv, 2024)

Columns and labels:
Experiment in all cases: immunostaining of cells or tissue
Conditions in all cases: one partner purified
[1] = molecular target: T1, Zaire ebolavirus glycoprotein (EBOV GP), full-length transmembrane, Mayinga (Zaire ebolavirus (EBOV), Mayinga, UniProt Q05320)
T1 construct: source: MDCK SIAT-1 cells expressing EBOV GP, on the cell surface

[2] = molecular target: T2, Sudan ebolavirus glycoprotein (SUDV GP), full-length transmembrane (Sudan ebolavirus (SUDV), UniProt Q7T9D9)
T2 construct: source: MDCK SIAT-1 cells expressing SUDV GP, on the cell surface

[3] = molecular target: T3, Bundibugyo ebolavirus glycoprotein (BDBV GP), full-length transmembrane (Bundibugyo ebolavirus (YP_003815435.1), UniProt B8XCN0)
T3 construct: source: MDCK SIAT-1 cells expressing BDBV GP, on the cell surface

[4] = molecular target: Tai Forest ebolavirus glycoprotein (TAFV GP) (Tai Forest ebolavirus (TAFV), UniProt Q66810)
[5] = molecular target: Reston ebolavirus glycoprotein (RESTV GP) (Reston ebolavirus, isolate ; …, UniProt Q66799)

Measured: binding result

B1: mAb 11883, recombinant rabbit IgG (antibody, V domains shown)
VH: QEQLVESGGGLVQPEGSLTLTCTASGFSFSSNCWRCWVRQAPGKGLEWIACVCAGRSGGTTYYASWAKGRFTISKTSSPTVTLQMTSLTAADTATYFCARAGYDDYGDASFFNLWGPGTLVTVS
VL: AVVLTQTASPVSTPVGGTVTIKCQASQNIYSNLAWYQQKPGQPPKLLIYSASTLASGVPSRFKGSGSGTEYTLTISDLECADAATYYCQRYYYLSGSADNTFGGGTEVVVK
notes: source: HEK293F, transfected, purified (Protein A); copies: 2 + 2
binds: all assays above

B2: mAb 11886, recombinant rabbit IgG (antibody, V domains shown)
VH: QSVEESGGRLVTPGTPLTLTCIVSGFSLSNYYMSWVRQVPGKGLEWIGVIGWSGTSSYASWAKGRFTISKTASTTVDLKITSPTTEDTATYFCARVLYIGGGFNYYDAFDPWGPGTLVTVS
VL: DVVMTQTPASVSEPVGGTVTIKCQASQSIGSNLAWYQQKPGQPPKLLIYAASTLASGVPSRFKGSGSGTEFTLTISDLECADAATYYCQCTYYDSSYVYNNFGGGTEVVVK
notes: as for B1
binds: all assays above
